B1: Cby wild type fused to the N-terminal (RN) or C-terminal (RC) portion of synthetic Renilla luciferase (hRluc) [human] / itself (parent complex)
chain: MPFFGNTFSPKKTPPRKSASLSNLHSLDRSTREVELGLEYGSPTMNLAGQSLKFENGQWIAETGVSGGVDRREVQRLRRRNQQLEEENNLLRLKVDILLDMLSESTAESHLMEKELDELRISRKRK

The variants in the assay derive from B1. Nature of the assay: split hRluc protein-fragment-assisted complementation assay; HEK293T cells; expression plasmids 400 ng each; triplicate, means ± SD; read off a plot.
In the case of MPFFGNTFSPKKTPPRKSASLSNLHSLDRSTREVELGLEYGSPTMNLAGQSLKFENGQWIAETGVSGGVDRREVQRARRRNQQAEEENNLLRLKVDILLDMLSESTAESHLMEKELDELRISRKRK, the response is around 0.18. Regarding MPFFGNTFSPKKTPPRKSASLSNLHSLDRSTREVELGLEYGSPTMNLAGQSLKFENGQWIAETGVSGGVDRREVQRLRRRNQQLEEENNLARLKVDILLDMLSESTAESHLMEKELDELRISRKRK, the response is around 4.

Turning to MPFFGNTFSPKKTPPRKSASLSNLHSLDRSTREVELGLEYGSPTMNLAGQSLKFENGQWIAETGVSGGVDRREVQRARRRNQQLEEENNLARLKVDILLDMLSESTAESHLMEKELDELRISRKRK, the response is around 0.55.

Take MPFFGNTFSPKKTPPRKSASLSNLHSLDRSTREVELGLEYGSPTMNLAGQSLKFENGQWIAETGVSGGVDRREVQRARRRNQQAEEENNLARLKVDIALDMLSESTAESHLMEKELDELRISRKRK: the response was around 0.5. Consider MPFFGNTFSPKKTPPRKSASLSNLHSLDRSTREVELGLEYGSPTMNLAGQSLKFENGQWIAETGVSGGVDRREVQRLRRRNQQLEEENNLARLKVDIALDMLSESTAESHLMEKELDELRISRKRK, for which the response is around 0.7. For MPFFGNTFSPKKTPPRKSASLSNLHSLDRSTREVELGLEYGSPTMNLAGQSLKFENGQWIAETGVSGGVDRREVQRLRRRNQQAEEENNLLRLKVDILLDMLSESTAESHLMEKELDELRISRKRK, the response was around 1.9.

Turning to MPFFGNTFSPKKTPPRKSASLSNLHSLDRSTREVELGLEYGSPTMNLAGQSLKFENGQWIAETGVSGGVDRREVQRLRRRNQQAEEENNLLRLKVDIALDMLSESTAESHLMEKELDELRISRKRK, the response is around 0.28.

For the variant MPFFGNTFSPKKTPPRKSASLSNLHSLDRSTREVELGLEYGSPTMNLAGQSLKFENGQWIAETGVSGGVDRREVQRARRRNQQLEEENNLLRLKVDILLDMLSESTAESHLMEKELDELRISRKRK, the response was around 3.2. For the variant MPFFGNTFSPKKTPPRKSASLSNLHSLDRSTREVELGLEYGSPTMNLAGQSLKFENGQWIAETGVSGGVDRREVQRLRRRNQQLEEENNLLRLKVDIALDMLSESTAESHLMEKELDELRISRKRK, the response was around 5.4.

The values are drawn from publication PMC2686680, “Chibby forms a homodimer through a heptad repeat of leucine residues in its C-terminal coiled-coil motif” (BMC Molecular Biology, 2009).
